We go through 5 molecules from PMC9482650, “Quantitative fragmentomics allow affinity mapping of interactomes” (Nature Communications, 2022).

What all share (experiment): holdup assay
Design in all cases: key: below the threshold = too weak to quantify, mostly under pKd 3.1 to 4
Holding throughout (details): plain residues with an end cap or a label only (N-terminal biotin on a linker: ado-ado)

For test [1], the target named is T1, APBA1_1, Q02410.
T1 sequence (Q02410 651-752, limits assumed, looked up): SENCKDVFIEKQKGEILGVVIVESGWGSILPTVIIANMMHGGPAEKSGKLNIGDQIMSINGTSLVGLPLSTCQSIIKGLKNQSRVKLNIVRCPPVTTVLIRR

In test [2] the target is T2, CARD11, Q9BXL7.
T2 sequence (Q9BXL7 662-765, limits assumed, looked up): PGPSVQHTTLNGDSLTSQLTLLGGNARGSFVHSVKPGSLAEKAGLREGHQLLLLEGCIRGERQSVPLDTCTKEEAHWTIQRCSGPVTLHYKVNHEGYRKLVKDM

Test [3] has as its target T3, DFNB31_1, Q9P202.
T3 sequence (Q9P202 135-233, limits assumed, looked up): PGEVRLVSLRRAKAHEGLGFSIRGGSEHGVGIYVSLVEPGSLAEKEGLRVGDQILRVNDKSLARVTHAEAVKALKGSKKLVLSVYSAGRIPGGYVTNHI

The target in test [4] is T4, DFNB31_2, Q9P202.
T4 sequence (Q9P202 274-371, limits assumed, looked up): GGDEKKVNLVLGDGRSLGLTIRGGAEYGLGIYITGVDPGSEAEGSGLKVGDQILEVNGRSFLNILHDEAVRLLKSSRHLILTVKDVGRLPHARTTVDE

Test [5] concerns the target T5, DFNB31_3, Q9P202.
T5 sequence (Q9P202 811-907, limits assumed, looked up): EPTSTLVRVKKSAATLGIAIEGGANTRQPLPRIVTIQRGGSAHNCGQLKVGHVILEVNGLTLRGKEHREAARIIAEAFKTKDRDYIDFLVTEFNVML

In test [6] the target is DLG1_2, Q12959.
The target in test [7] is T6, DVL3, Q92997.
T6 sequence (Q92997 244-331, limits assumed, looked up): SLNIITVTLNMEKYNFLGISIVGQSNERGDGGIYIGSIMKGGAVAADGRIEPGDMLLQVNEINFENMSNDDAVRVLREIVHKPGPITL

Test [8] deals with T7, FRMPD1, Q5SYB0.
T7 sequence (Q5SYB0 52-145, limits assumed, looked up): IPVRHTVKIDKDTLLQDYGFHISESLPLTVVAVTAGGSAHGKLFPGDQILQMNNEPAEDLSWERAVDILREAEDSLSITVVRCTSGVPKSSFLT

The target of test [9] is T8, GRIP1_5, Q9Y3R0.
T8 sequence (Q9Y3R0 568-668, limits assumed, looked up): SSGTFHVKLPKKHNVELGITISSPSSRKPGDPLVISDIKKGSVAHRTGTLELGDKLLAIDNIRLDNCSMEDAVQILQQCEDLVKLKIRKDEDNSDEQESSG

Test [10] addresses HTRA1, Q92743.
Test [11] concerns the target T9, HTRA4, P83105.
T9 sequence (P83105 378-476, limits assumed, looked up): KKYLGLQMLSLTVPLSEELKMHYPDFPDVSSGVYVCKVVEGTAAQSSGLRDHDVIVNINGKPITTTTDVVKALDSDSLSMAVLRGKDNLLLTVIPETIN

The target of test [12] is LIMK2, P53671.
The target in test [13] is T10, LIN7C, Q9NUP9.
T10 sequence (Q9NUP9 88-185, limits assumed, looked up): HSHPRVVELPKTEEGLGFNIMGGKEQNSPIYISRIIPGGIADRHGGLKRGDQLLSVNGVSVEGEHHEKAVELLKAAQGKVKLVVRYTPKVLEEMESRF

For test [14], the target named is MAGI2_2, Q86UL8.
Test [15] concerns the target MAGI2_3, Q86UL8.
The target of test [16] is NHERF4_4, Q86UT5.
Test [17] deals with PDZRN4_1, Q6ZMN7.
Test [18] concerns the target T11, RAPGEF6, Q8TEU7.
T11 sequence (Q8TEU7 525-625, limits assumed, looked up): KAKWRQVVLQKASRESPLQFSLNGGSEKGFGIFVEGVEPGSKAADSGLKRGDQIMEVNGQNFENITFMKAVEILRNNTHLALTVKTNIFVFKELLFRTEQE

The target of test [19] is T12, SHANK1, Q9Y566.
T12 sequence (Q9Y566 658-767, limits assumed, looked up): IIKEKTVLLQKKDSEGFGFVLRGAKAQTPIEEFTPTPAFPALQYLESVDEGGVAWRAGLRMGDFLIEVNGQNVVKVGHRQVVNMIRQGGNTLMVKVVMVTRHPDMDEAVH

Test [20] has as its target T13, TIAM2, Q8IVF5.
T13 sequence (Q8IVF5 885-986, limits assumed, looked up): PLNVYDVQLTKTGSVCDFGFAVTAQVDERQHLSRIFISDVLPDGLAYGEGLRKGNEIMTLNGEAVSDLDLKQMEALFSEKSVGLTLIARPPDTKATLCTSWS

The target in test [21] is T14, TJP3_3, O95049.
T14 sequence (O95049 375-456, limits assumed, looked up): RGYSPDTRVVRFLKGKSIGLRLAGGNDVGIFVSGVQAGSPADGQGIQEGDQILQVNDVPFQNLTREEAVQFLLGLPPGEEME

The target of test [22] is T15, TX1BP3, O14907.
T15 sequence (O14907 10-122, limits assumed, looked up): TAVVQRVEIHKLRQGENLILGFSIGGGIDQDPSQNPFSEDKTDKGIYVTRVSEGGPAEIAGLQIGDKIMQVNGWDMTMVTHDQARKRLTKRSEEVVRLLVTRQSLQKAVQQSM

Chain of PDZRN4_1, Q6ZMN7 (Q6ZMN7 213-318): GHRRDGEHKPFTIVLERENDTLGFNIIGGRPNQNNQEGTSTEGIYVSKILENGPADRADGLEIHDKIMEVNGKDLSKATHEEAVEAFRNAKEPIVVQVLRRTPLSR
Chain of DLG1_2, Q12959 (Q12959 314-412): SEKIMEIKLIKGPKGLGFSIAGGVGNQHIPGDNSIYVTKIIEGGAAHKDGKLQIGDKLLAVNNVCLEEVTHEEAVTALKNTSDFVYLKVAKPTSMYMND
Chain of NHERF4_4, Q86UT5 (Q86UT5 464-550): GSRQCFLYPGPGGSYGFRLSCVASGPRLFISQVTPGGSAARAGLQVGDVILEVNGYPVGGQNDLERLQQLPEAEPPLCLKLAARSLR
Chain of LIMK2, P53671 (P53671 143-248): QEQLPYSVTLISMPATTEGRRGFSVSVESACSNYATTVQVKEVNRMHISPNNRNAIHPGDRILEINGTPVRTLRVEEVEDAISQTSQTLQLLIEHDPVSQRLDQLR
Chain of MAGI2_3, Q86UL8 (Q86UL8 600-682): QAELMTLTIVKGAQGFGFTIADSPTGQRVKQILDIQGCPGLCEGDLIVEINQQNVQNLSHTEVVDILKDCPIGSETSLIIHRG
Chain of HTRA1, Q92743 (Q92743 360-477): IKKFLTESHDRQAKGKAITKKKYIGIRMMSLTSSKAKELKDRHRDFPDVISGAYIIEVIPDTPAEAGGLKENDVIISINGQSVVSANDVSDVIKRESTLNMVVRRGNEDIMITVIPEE
Chain of MAGI2_2, Q86UL8 (Q86UL8 410-522): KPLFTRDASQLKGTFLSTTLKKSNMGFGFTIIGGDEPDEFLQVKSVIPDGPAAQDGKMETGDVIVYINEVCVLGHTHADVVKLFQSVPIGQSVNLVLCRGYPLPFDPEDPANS

As for QKAPTKEFYA [SDC2, P34741], the pKd entry in test [1] is “below the threshold”; in test [2] it was “below the threshold”; in test [3] it was “below the threshold”; in [4] it was “below the threshold”; in test [5], 3.91; in [6], 3.49. The pKd result was “below the threshold” in test [7]; “below the threshold” in test [8]; “below the threshold” in [9]; 4.47 in test [10]; “below the threshold” in test [11]; “below the threshold” in test [12]. Also, the pKd result in test [13] is “below the threshold”; in test [14], “below the threshold”; in [15] it was “below the threshold”; in test [16], “below the threshold”; in test [17], “below the threshold”; in test [18], 3.54. Also, the pKd was 3.53 in [19], 4.34 in test [20], “below the threshold” in test [21] and “below the threshold” in [22].
On to KPGKGSETVV [FZD4, Q9ULV1], for which the pKd entry is “below the threshold” in test [1]; “below the threshold” in test [2]; 3.91 in test [3]; “below the threshold” in test [4]; “below the threshold” in test [5]; 5.12 in [6]. The negative-log Kd (pKd) result in [7] is “below the threshold”; in test [8] it was “below the threshold”; in test [9], “below the threshold”; in [10], 4.3; in test [11], “below the threshold”; in [12], “below the threshold”. The pKd in test [13] was 4.08; in [14], 5.22; in test [15], “below the threshold”; in test [16], “below the threshold”; in test [17] it was 3.51; in [18] it was “below the threshold”. The negative logarithm of the Kd (pKd) entry in [19], in [20], in [21] and in test [22] was “below the threshold” throughout.
In the case of TGLWKHETTV [ADGRA3, Q8IWK6], the negative-log Kd (pKd) result was “below the threshold” in test [1]; “below the threshold” in test [2]; 3.9 in [3]; “below the threshold” in test [4]; 3.85 in test [5]; 5.48 in test [6]. Further, the pKd entry in [7] is “below the threshold”; in test [8], “below the threshold”; in [9], “below the threshold”; in test [10], 4.32; in test [11] it was 4.15; in test [12], “below the threshold”. Moreover, the negative logarithm of the Kd (pKd) in [13] is 4.6; in test [14], 5.22; in [15] it was 4.02; in test [16], 3.87; in [17] it was 4.56; in test [18], “below the threshold”. In addition, the pKd entry in test [19] was “below the threshold”; in test [20], “below the threshold”; in [21], “below the threshold”; in test [22], 5.08.
As for AAVENKVTDL [PLXNB1, O43157], the pKd entry in [1] was “below the threshold”; in test [2], “below the threshold”; in test [3], 3.47; in [4] it was “below the threshold”; in test [5], 3.94; in [6] it was 4.45. The pKd result in test [7] was “below the threshold”; in test [8] it was “below the threshold”; in test [9], “below the threshold”; in test [10] it was 4.12; in [11], “below the threshold”; in test [12], “below the threshold”. Also, the negative logarithm of the Kd (pKd) entry in test [13], in [14], in test [15], in test [16], in test [17] and in test [18] was “below the threshold” each time. The pKd entry in test [19] was “below the threshold”; in [20], “below the threshold”; in test [21], “below the threshold”; in test [22], 4.77.
Consider PYPTADHMLA [JUP, P14923], for which the negative-log Kd (pKd) entry is “below the threshold” in test [1]; “below the threshold” in test [2]; “below the threshold” in [3]; “below the threshold” in [4]; 3.83 in [5]; 3.6 in [6]. The pKd entry in [7] was “below the threshold”; in [8], “below the threshold”; in test [9] it was “below the threshold”; in test [10], 4.32; in test [11], “below the threshold”; in test [12], “below the threshold”. Besides, the negative logarithm of the Kd (pKd) is 3.87 in [13]; “below the threshold” in test [14]; “below the threshold” in test [15]; “below the threshold” in test [16]; “below the threshold” in test [17]; “below the threshold” in test [18]. The negative logarithm of the Kd (pKd) entry in test [19] was “below the threshold”; in test [20], 3.92; in [21], “below the threshold”; in test [22], 4.01.
